Measured values published in paper PMC5021285.
Several values for one entry are separate records, joined by “and”; a condition that tells them apart may be missing. Equal entries are not always repeated.

Key:
[1] = biological target: LigB12, tag free (12th Ig-like domain of Leptospira immunoglobulin-like protein B) (Leptospira interrogans serovar Pomona); assay: SPR; Biacore 3000; tag free LigB12 amine-coupled to a CM5 chip (1000 RU); FgαCC truncates 0-3 μM in PBS, 30 μL/min, 25°C; 1:1 Langmuir model
[2] = biological target: LigB12 A1065K (Leptospira interrogans serovar Pomona); assay: ELISA; LigB12 WT, mutants or BSA coated (1 μM/well); 5 μM GST-FgαCC8; anti-GST-HRP; relative binding (%) against WT
[3] = biological target: LigB12 F1054A (Leptospira interrogans serovar Pomona); assay: as above
[4] = biological target: LigB12 D1061N (Leptospira interrogans serovar Pomona); assay: as above
D1066A and E1088A = assay: as above
[5] = biological target: His-Sumo tagged FgαCC8 (human) (UniProt P02671); assay: ELISA; His-Sumo FgαCC8 captured by coated anti-His antibody; GST-LigB12 0-5 μM in phosphate buffer pH 7, 1200 mM NaCl; anti-GST-HRP
[6] = biological target: His-Sumo tagged FgαCC8 (human) (UniProt P02671); assay: ELISA; His-Sumo FgαCC8 captured by coated anti-His antibody; GST-LigB12 0-5 μM in phosphate buffer pH 6, 1200 mM NaCl; anti-GST-HRP
[7] = biological target: His-Sumo tagged FgαCC8 (human) (UniProt P02671); assay: ELISA; His-Sumo FgαCC8 captured by coated anti-His antibody; GST-LigB12 0-5 μM in phosphate buffer pH 5, 150 mM NaCl; anti-GST-HRP
[8] = biological target: His-Sumo tagged FgαCC8 (human) (UniProt P02671); assay: ELISA; His-Sumo FgαCC8 captured by coated anti-His antibody; GST-LigB12 0-5 μM in phosphate buffer pH 7, 150 mM NaCl; anti-GST-HRP (Fig 5A and Fig 5B)
Factor XIII (FXIII) [9] = biological target: Factor XIII (FXIII) (UniProt P00488); assay: ELISA; FXIII, FgαCC8 (positive control) or BSA coated; GST-LigB12 0-3 μM; anti-GST-HRP
[10] = biological target: His-Sumo tagged FgαCC8 (human) (UniProt P02671); assay: ELISA; His-Sumo FgαCC8 captured by coated anti-His antibody; GST-LigB12 0-5 μM in phosphate buffer pH 6, 150 mM NaCl; anti-GST-HRP
[11] = biological target: His-Sumo tagged FgαCC8 (human) (UniProt P02671); assay: ELISA; His-Sumo FgαCC8 captured by coated anti-His antibody; GST-LigB12 0-5 μM in phosphate buffer pH 6, 75 mM NaCl; anti-GST-HRP
[12] = biological target: His-Sumo tagged FgαCC8 (human) (UniProt P02671); assay: ELISA; His-Sumo FgαCC8 captured by coated anti-His antibody; GST-LigB12 0-5 μM in phosphate buffer pH 7, 75 mM NaCl; anti-GST-HRP
FgαCC2 (human) = FgαCC2 (human) (UniProt P02671); assay: ELISA; 1 μM FgαCC, FgαCC truncates or BSA coated on microtiter wells; GST-LigB12 0-3 μM, 1 h 37°C; anti-GST-HRP; KD = EC50 of a dose-response fit
[13] = biological target: FgαCC8 (C-terminal 23 amino acids of the fibrinogen α chain) (human) (UniProt P02671); assay: as above
FgαCC3 (human) = FgαCC3 (human) (UniProt P02671); assay: as above
[14] = biological target: FgαCC (C-terminal region of the fibrinogen αC domain) (human) (UniProt P02671); assay: as above
FgαCC5 (human) = FgαCC5 (human) (UniProt P02671); assay: as above
FgαCC8 R608A (human) = FgαCC8 R608A (human) (UniProt P02671); assay: ELISA; FgαCC8 WT, alanine mutants or BSA coated (1 μM/well); 5 μM GST-LigB12; anti-GST-HRP; relative binding (%) against WT
FgαCC8 R611A (human) = FgαCC8 R611A (human) (UniProt P02671); assay: as above
FgαCC8 H614A (human) = FgαCC8 H614A (human) (UniProt P02671); assay: as above
FgαCC8 L618A (human) = FgαCC8 L618A (human) (UniProt P02671); assay: as above
FgαCC8 I613A (human) = FgαCC8 I613A (human) (UniProt P02671); assay: as above
Factor XIII (FXIII) [15] = biological target: Factor XIII (FXIII) (UniProt P00488); assay: ELISA; inhibition: FXIII coated; tag free LigB12 or LigB4 0-10 μM, 1 h 37°C, unbound washed off; then 1 μM His-Sumo FgαCC, 1 h 37°C; anti-His-HRP; binding relative to wells without LigB
[16] = biological target: GST tagged FgαCC8, P02671-2; assay: ELISA; settings: 5 μM GST tagged FgαCC8 added to coated wells (1 μM/well); parent: est. 100; read off a plot
[17] = biological target: T1, GST tagged LigB12 (12th Ig-like domain of Leptospira immunoglobulin-like protein B); assay: ELISA; settings: chain shown with the change; 5 μM GST tagged LigB12 added to coated wells (1 μM/well); parent: est. 100; read off a plot
T1 chain: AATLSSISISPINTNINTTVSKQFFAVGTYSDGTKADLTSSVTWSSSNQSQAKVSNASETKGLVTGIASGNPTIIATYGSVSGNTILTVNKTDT

Chain of UniProt P00488 (P00488 whole entry, chain 1 of 2): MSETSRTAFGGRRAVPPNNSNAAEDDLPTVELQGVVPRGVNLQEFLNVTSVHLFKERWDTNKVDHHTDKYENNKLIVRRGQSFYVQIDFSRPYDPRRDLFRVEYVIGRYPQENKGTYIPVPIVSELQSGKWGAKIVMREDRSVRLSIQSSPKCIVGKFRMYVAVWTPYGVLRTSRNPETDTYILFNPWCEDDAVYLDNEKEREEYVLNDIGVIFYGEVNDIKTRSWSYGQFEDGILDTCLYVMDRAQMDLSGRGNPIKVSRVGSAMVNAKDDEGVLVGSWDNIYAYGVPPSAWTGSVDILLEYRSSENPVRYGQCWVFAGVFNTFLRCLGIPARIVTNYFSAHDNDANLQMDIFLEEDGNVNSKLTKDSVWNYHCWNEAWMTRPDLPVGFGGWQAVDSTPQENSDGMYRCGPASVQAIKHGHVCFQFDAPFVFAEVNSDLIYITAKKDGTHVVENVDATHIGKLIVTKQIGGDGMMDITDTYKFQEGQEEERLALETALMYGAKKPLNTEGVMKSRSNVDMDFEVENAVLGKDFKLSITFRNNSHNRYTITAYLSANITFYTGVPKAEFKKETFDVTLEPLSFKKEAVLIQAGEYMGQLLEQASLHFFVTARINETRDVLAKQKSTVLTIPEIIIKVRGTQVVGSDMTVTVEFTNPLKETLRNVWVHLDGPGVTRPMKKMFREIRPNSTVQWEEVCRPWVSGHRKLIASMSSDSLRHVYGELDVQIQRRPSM
Chain of UniProt P00488 (P05160 21-661, chain 2 of 2, further chain): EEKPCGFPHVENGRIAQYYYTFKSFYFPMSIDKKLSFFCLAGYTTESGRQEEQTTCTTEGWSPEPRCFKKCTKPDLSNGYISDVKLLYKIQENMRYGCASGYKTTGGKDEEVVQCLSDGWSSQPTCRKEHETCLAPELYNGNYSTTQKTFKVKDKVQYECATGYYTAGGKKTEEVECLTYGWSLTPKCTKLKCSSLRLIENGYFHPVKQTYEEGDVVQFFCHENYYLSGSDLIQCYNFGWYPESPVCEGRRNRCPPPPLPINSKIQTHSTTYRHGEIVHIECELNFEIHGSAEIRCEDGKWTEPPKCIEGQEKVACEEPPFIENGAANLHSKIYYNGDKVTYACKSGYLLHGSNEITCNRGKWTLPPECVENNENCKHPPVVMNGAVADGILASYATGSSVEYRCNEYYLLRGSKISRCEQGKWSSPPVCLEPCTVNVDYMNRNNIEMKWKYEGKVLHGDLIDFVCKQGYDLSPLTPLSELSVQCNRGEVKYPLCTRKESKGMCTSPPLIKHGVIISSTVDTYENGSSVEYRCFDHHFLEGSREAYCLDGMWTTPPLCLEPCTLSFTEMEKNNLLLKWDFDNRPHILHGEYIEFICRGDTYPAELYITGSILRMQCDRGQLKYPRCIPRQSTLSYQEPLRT

For “FgαCC3 (from UniProt P02671-2 526-644) (domain or fragment)”, which Kd [1] is on record?
The Kd was 704 nM.

What about the koff [1] of the same molecule?
Its koff is 0.0339 s⁻¹.

What about the kon [1] of the same molecule?
Its kon is 48100 M⁻¹ s⁻¹.

Which results are given for “FgαCC5 (from UniProt P02671-2 579-644) (domain or fragment)”?
Kd [1]: 1040 nM; koff [1]: 0.0384 s⁻¹; kon [1]: 36900 M⁻¹ s⁻¹

With “FgαCC8 (C-terminal 23 amino acids of the fibrinogen α chain) (from UniProt P02671-2 622-644) (domain or fragment)” as the molecule, how does the Kd [1] read?
The Kd was 959 nM.

What about the koff [1] of the same molecule?
Its koff is 0.0357 s⁻¹.

What about the kon [1] of the same molecule?
Its kon is 37200 M⁻¹ s⁻¹.

How did the percent reduction of binding relative to WT [2] turn out when “GST tagged FgαCC8 (from UniProt P02671-2 622-644) (domain or fragment)” was run?
The percent reduction of binding relative to WT was 46%.

What about the percent reduction of binding relative to WT [3] of the same molecule?
Its percent reduction of binding relative to WT is 51%.

And the percent reduction of binding relative to WT [4]?
Its percent reduction of binding relative to WT is over 30%.

And the percent reduction of binding relative to WT (D1066A and E1088A)?
Its percent reduction of binding relative to WT is 10 to 12%.

With “GST tagged LigB12 (12th Ig-like domain of Leptospira immunoglobulin-like protein B) (domain or fragment)” as the molecule, how does the Kd [5] read?
The Kd was 6.61 µM.

And the Kd [6]?
The Kd was 220 nM.

What about the Kd [7] of the same molecule?
The Kd was 1830 nM.

And the Kd [8]?
Its Kd is 820 nM and 620 nM.

What about the Kd (Factor XIII (FXIII) [9]) of the same molecule?
The Kd was 150 nM.

What about the Kd [10] of the same molecule?
The Kd was 470 nM.

What about the Kd [11] of the same molecule?
The Kd was 1290 nM.

What about the Kd [12] of the same molecule?
The Kd was 460 nM.

What about the fold over the negative control (BSA) at 3 μM LigB12 (FgαCC2 (human)) of the same molecule?
The fold over the negative control (BSA) at 3 μM LigB12 was 2.5 fold.

And the Kd [13]?
Its Kd is 760 nM.

What about the Kd (FgαCC3 (human)) of the same molecule?
Its Kd is 510 nM.

What about the Kd [14] of the same molecule?
Its Kd is 370 nM.

And the Kd (FgαCC5 (human))?
Its Kd is 580 nM.

What about the percent reduction of binding relative to WT (FgαCC8 R608A (human)) of the same molecule?
The percent reduction of binding relative to WT was over 60%.

And the percent reduction of binding relative to WT (FgαCC8 R611A (human))?
The percent reduction of binding relative to WT was over 60%.

What about the percent reduction of binding relative to WT (FgαCC8 H614A (human)) of the same molecule?
The percent reduction of binding relative to WT was 50%.

And the percent reduction of binding relative to WT (FgαCC8 L618A (human))?
The percent reduction of binding relative to WT was 12%.

What about the percent reduction of binding relative to WT (FgαCC8 I613A (human)) of the same molecule?
Its percent reduction of binding relative to WT is 47%.

With “LigB12, tag free (12th Ig-like domain of Leptospira immunoglobulin-like protein B) (domain or fragment)” as the molecule, how does the percent reduction of FgαCC binding to FXIII at high LigB12 concentrations (fit of the dose inhibition curve) (Factor XIII (FXIII) [15]) read?
Its percent reduction of FgαCC binding to FXIII at high LigB12 concentrations (fit of the dose inhibition curve) is 56.7%.

How did the percent of parent [16] turn out when “LigB12, tag free (12th Ig-like domain of Leptospira immunoglobulin-like protein B) D1066A” was run?
The percent of parent was 88 % of WT.

How did the percent of parent [16] turn out when “LigB12, tag free (12th Ig-like domain of Leptospira immunoglobulin-like protein B) E1088A” was run?
The percent of parent was 90 % of WT.

For “LigB12, tag free (12th Ig-like domain of Leptospira immunoglobulin-like protein B) P1040C; F1053C”, which percent of parent [16] is on record?
The percent of parent was 96 % of WT.

For MADEAGSEADHEGTHSTARGHAK [FgαCC8 (C-terminal 23 amino acids of the fibrinogen α chain), P02671-2 K620A], which percent of parent [17] is on record?
Its percent of parent is 77 % of WT.

How did the percent of parent [17] turn out when GHAASRPVRGIHTSPLGKPSLSP [FgαCC8 (C-terminal 23 amino acids of the fibrinogen α chain), P02671-2 K606A] was run?
Its percent of parent is 78 % of WT.

For GHAKSRPARGIHTSPLGKPSLSP [FgαCC8 (C-terminal 23 amino acids of the fibrinogen α chain), P02671-2 V610A], which percent of parent [17] is on record?
Its percent of parent is 99 % of WT.
